Assays:
[1] = SDS-PAGE/Western blot of non-boiled culture supernatant; self-association of subunits
[2] = SDS-PAGE/Western blot of non-boiled culture supernatant, 20 uM biotin in medium; self-association of subunits

B1: streptavidin mutein M4 (T76R, V125R, V55T, L109T), secreted by B. subtilis (protein)
chain: DPSKDSKAQVSAAEAGITGTWYNQLGSTFIVTAGADGALTGTYESAVGNAESRYTLTGRYDSAPATDGSGTALGWRVAWKNNYRNAHSATTWSGQYVGGAEARINTQWTLTSGTTEANAWKSTLRGHDTFTKVKPSAASIDAAKKAGVNNGNPLDAVQQ
B1 showed a % monomer, no additional biotin [1] of 100% and a % monomer, with additional biotin [2] of 100%.
